According to PMC3466309, “Initial Characterization of the Pf-Int Recombinase from the Malaria Parasite Plasmodium falciparum”:

Experiments:
[1] = target: T1, His6-Pf-Int-C192 (Plasmodium falciparum 3D7, UniProt C0H5A8 192-490); experiment: EMSA supershift; 0.04 or 0.2 uM protein; anti-Pf-Int disrupts, anti-His5 supershifts; EMSA: 50 mM Tris pH 8, 150 mM NaCl, 0.1 mM EDTA, 5 mM DTT, 50 ug/ml BSA, 2% glycerol, 0.5% Tween 20, 10 ug/ml poly(dI-dC) unless omitted, 10 nM DNA, 20 min at 20 C; 5% gel in 0.5x TBE at 18 C; conditions: protein: recombinant; tags: N-terminal His6; label: 5'-DY682 on strand 1; blunt
T1 sequence: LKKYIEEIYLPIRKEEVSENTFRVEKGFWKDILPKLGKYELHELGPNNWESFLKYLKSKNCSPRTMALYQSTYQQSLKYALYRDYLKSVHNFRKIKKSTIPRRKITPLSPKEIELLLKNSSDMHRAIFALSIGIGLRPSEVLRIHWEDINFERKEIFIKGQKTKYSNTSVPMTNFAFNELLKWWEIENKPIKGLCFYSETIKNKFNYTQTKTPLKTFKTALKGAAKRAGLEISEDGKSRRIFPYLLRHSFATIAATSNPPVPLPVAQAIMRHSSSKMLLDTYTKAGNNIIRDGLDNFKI

[2] = target: T2, Pf-Int-C162 (Plasmodium falciparum 3D7, UniProt C0H5A8 162-490); experiment: EMSA; 10 ug/ml poly(dI-dC); EMSA: 50 mM Tris pH 8, 150 mM NaCl, 0.1 mM EDTA, 5 mM DTT, 50 ug/ml BSA, 2% glycerol, 0.5% Tween 20, 10 ug/ml poly(dI-dC) unless omitted, 10 nM DNA, 20 min at 20 C; 5% gel in 0.5x TBE at 18 C; conditions: protein: recombinant; tags: N- or C-terminal His6 versions; label: 5'-DY682 on strand 1; blunt
T2 sequence: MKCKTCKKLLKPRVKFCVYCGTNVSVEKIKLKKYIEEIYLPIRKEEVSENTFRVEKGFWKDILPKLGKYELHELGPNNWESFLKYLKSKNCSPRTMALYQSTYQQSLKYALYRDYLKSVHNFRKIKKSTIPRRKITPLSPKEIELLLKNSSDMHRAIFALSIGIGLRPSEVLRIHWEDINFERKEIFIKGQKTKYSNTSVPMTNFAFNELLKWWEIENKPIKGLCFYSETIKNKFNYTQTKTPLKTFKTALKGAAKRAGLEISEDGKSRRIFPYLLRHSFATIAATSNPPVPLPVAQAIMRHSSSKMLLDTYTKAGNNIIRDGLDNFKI

[3] = target: T3, Pf-Int-C192 (Plasmodium falciparum 3D7, UniProt C0H5A8 192-490); experiment: EMSA; 10 ug/ml poly(dI-dC); max shift at ~15-fold higher protein/DNA ratio than without; EMSA: 50 mM Tris pH 8, 150 mM NaCl, 0.1 mM EDTA, 5 mM DTT, 50 ug/ml BSA, 2% glycerol, 0.5% Tween 20, 10 ug/ml poly(dI-dC) unless omitted, 10 nM DNA, 20 min at 20 C; 5% gel in 0.5x TBE at 18 C; conditions: protein: recombinant; label: 5'-DY682 on strand 1; blunt
T3 sequence: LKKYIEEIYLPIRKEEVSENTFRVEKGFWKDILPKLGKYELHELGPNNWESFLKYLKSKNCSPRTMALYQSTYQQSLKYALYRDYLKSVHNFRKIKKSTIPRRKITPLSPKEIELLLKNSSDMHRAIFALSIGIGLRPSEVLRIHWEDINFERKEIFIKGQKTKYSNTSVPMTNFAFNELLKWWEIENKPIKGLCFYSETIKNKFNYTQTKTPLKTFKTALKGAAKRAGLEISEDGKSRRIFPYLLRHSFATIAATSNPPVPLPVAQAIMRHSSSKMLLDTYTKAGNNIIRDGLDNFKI

B1: Selex8 (dsDNA)
DNA 1: CAAACACACTGTGCGCGCGTCG
DNA 2: CGACGCGCGCACAGTGTGTTTG
B1: binds [1]; no binding [2]; binds [3].
